Columns and labels:
human CX3CR1 receptor [1] = target: T1, human CX3CR1 receptor (human, UniProt P49238 1-355); assay: competitive radioligand binding, CX3CR1-expressing CHO cells, 125I-FKN tracer
T1 construct: Expressed on stably transfected HEK or CHO cells, or endogenous on human PBMC (CD8+ T cells, NK cells); also called HEK-CX3CR1 cells; CHO-CX3CR1 cells
T1 sequence: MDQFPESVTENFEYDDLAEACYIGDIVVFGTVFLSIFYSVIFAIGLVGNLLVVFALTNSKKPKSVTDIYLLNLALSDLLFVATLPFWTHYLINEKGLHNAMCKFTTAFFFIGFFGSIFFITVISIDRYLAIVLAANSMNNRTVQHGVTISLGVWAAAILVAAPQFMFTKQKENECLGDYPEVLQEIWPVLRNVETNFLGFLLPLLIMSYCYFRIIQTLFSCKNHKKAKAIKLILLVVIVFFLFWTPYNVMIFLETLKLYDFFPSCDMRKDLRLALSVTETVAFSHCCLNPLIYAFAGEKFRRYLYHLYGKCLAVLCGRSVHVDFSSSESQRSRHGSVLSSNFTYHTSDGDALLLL
Protocol: (§1) Assays were performed as previously described by Moatti et al. (2001, Blood 97, 1925-8). Competitive binding to HEK-CX3CR1 and CHO-CX3CR1 cells was performed with 50 pM [¹²⁵I]-CX3CL1 (Amersham General Electric, Saclay, France) plus variable amounts of unlabeled ligand. Each concentration was assayed in duplicate. After 2 h at 37° C., cells were washed and radioactivity in the cell pellet was quantified with a gamma counter (LKB Wallac, Saint Quentin en Yvelines, France).
(§2) Assays for determining the competitive radioligand binding of F2 and of F2-Ig to CX3CR1 were carried out as described in Example 1.8.

human CX3CR1 receptor [2] = target: T1, human CX3CR1 receptor; assay: competitive radioligand binding, CX3CR1-expressing HEK cells, 125I-FKN tracer
Protocol: as §1, §2

human CX3CR1 receptor [3] = target: T1, human CX3CR1 receptor; assay: competitive radioligand binding, HEK-CX3CR1 cells, [125I]-CX3CL1 tracer
Protocol: as §1
CX3CL1 in a competition binding, with HEK-CX3CR1 cells and [¹²⁵I]-CX3CL1 as a tracer. The F1 analogue interacted with CX3CR1, although with a lower affinity than CX3CL1. […] A similar difference in affinity was apparent when F1 and CX3CL1 were tested on CHO-CX3CR1 cells, and when the affinity of CX3CL1-Ig was compared to that of F1-Ig.

CCR5 (on HEK-CCR5 cells) = target: T2, CCR5 (on HEK-CCR5 cells) (UniProt P51681 1-352, limits assumed); assay: flow cytometry of phage on cells
T2 construct: whole, on cells; also called CCR5-expressing cells

human CX3CR1 receptor [4] = target: T1, human CX3CR1 receptor; assay: flow cytometry of phage on cells
human CX3CR1 receptor [5] = target: T1, human CX3CR1 receptor; assay: phage display selection on HEK-CX3CR1 cells, elution with soluble CX3CL1
Protocol: Phage particles are represented as cylinders (encapsulated phage genome) with multiple heads (pIII-CX3CL1 mutant fusion). […] (3) Stringent washing was used to remove nonspecifically bound phage. (4) An excess of soluble CX3CL1 (sCX3CL1) was added to remove surface-associated phage. Eluted phages were allowed to infect E. coli, and stocks of selected phages were prepared to be used in a new round of selection (steps 1 to 4).
A phage library of CX3CL1 mutants (10¹⁰ CFU) was directly incubated with 5.10⁶ HEK-CX3CR1 or HEK-CCR5 cells growing in 25 cm² tissue culture flasks (Becton Dickinson, Le Pont de Claix, France) at 37° C. at 5% CO₂ in 5 ml of supplemented RPMI-1640 medium. After 1 h, cells were washed 10 times at room temperature with 10 ml of phosphate-buffered saline (PBS) and then scraped from the plate into 10 ml of PBS-0.5% BSA. Cells were then pelleted and incubated for 20 min on ice in elution buffer consisting of an excess of soluble CX3CL1 (10 μM in 100 μl PBS-BSA). Cells were centrifuged (1000×g for 5 min) and supernatant was mixed with log-phase E. coli TG1 for production and purification of stock phage to be used in further rounds of selection, as described by Hartley et al. (2003, J Virol 77, 6637-44).

T2 sequence (P51681 whole entry): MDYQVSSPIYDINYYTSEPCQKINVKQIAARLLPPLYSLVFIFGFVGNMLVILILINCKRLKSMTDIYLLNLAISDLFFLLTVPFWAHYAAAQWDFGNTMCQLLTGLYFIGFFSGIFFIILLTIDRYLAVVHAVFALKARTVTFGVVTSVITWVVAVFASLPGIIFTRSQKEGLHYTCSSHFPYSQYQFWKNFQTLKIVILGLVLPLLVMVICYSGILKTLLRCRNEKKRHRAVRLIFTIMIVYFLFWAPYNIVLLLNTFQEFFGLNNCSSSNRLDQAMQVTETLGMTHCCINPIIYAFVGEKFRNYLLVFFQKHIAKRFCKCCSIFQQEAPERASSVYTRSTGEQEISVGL

B1: CX3CL1-Ig (CX3CL1 chemokine domain fused to murine Fc) (Fc fusion)
chain: QHHGVTKCNITCSKMTSKIPVALLIHYQQNQASCGKRAIILETRQHRLFCADPKEQWVKDAMQHLDRQAAALTRNGEPRGPTIKPCPPCKCPAPNLEGGPSVFIFPPKIKDVLMISLSPIVTCVVVDVSEDDPDVQISWFVNNVEVHTAQTQTHREDYNSTLRVVSALPIQHQDWMSGKAFACAVNNKDLPAPIERTISKPKGSVRAPQVYVLPPPEEEMTKKQVTLTCMVTDFMPEDIYVEWTNNGKTELNYKNTEPVLDSDGSYFMYSKLRVEKKNWVERNSYSCSVVHEGLHNHHTTKSFSRTPGK
notes: domain: Fcγ2a fragment; also called FKN-Ig
Question: B1 was tested. Which IC50 (human CX3CR1 receptor [1]) did it give?
Answer: 1.47 nM

B2: CX3CL1 (native human soluble chemokine) (ligand)
chain: QHHGVTKCNITCSKMTSKIPVALLIHYQQNQASCGKRAIILETRQHRLFCADPKEQWVKDAMQHLDRQAAALTRNG
notes: The tracer is iodinated CX3CL1 from Amersham; also called fractalkine; FKN
Question: Which IC50 (human CX3CR1 receptor [2]) does the source give for B2 here?
Answer: 0.58 nM

Question: What about the IC50 (human CX3CR1 receptor [3]) of the same binder?
Answer: 0.16 nM

Question: And the “Log IC50” value (human CX3CR1 receptor [3])?
Answer: -9.79

B3: CX3CL1-phage (human CX3CL1 chemokine domain displayed on phage) (other, not shown: large carriers)
chain: QHHGVTKCNITCSKMTSKIPVALLIHYQQNQASCGKRAIILETRQHRLFCADPKEQWVKDAMQHLDRQAAALTRNG
notes: also called phage-chemokine
Question: Does B3 bind (CCR5 (on HEK-CCR5 cells))?
Answer: no binding

B4: F2 (CX3CL1 analogue with N-terminal sequence QPQGVS) (ligand)
chain: QPQGVSKCNITCSKMTSKIPVALLIHYQQNQASCGKRAIILETRQHRLFCADPKEQWVKDAMQHLDRQAAALTRNG
notes: Produced by chemical synthesis
Question: With B4 as the binder, how does the IC50 (human CX3CR1 receptor [2]) read?
Answer: 0.05 nM

B5: F2-Ig (F2 fused to a domain of an immunoglobulin) (Fc fusion)
chain: QPQGVSKCNITCSKMTSKIPVALLIHYQQNQASCGKRAIILETRQHRLFCADPKEQWVKDAMQHLDRQAAALTRNGAAAHPRGPTIKPCPPCKCPAPNLEGGPSVFIFPPKIKDVLMISLSPIVTCVVVDVSEDDPDVQISWFVNNVEVHTAQTQTHREDYDSTLRVVSALPIQHQDWMSGKAFACAVNNKDLPAPIGRTISKPKGSVRAPQVYVLPPPEEEMTKKQVTLTCMVTDFMPEDIYVEWTNNGKTELNYKNTEPVLDSDGSYFMYSKLRVEKKNWVERNSYSCSVVHEGLHNHHTTKSFSRPPGK
Question: With B5 as the binder, how does the IC50 (human CX3CR1 receptor [1]) read?
Answer: 0.39 nM

B6: CCL5-expressing phage (other, UniProt P13501 24-91, looked up, not shown: large carriers)
chain: SPYSSDTTPCCFAYIARPLPRAHIKEYFYTSGKCSNPAVVFVTRKNRQVCANPEKKWVREYINSLEMS
notes: Control phage
Question: Does B6 bind (human CX3CR1 receptor [4])?
Answer: no binding

B7: F1 (CX3CL1 analogue, soluble chemokine domain with N-terminal sequence ILDNGVS) (ligand)
chain: ILDNGVSKCNITCSKMTSKIPVALLIHYQQNQASCGKRAIILETRQHRLFCADPKEQWVKDAMQHLDRQAAALTRNG
notes: also called F1 analogue; soluble F1
Question: What does the source list for B7?
Answer: IC50 (human CX3CR1 receptor [3]): 1.9 nM; Log IC50 (human CX3CR1 receptor [3]): -8.73

B8: phage-displayed CX3CL1 mutant with N-terminal sequence TLAQGLP (other, not shown: large carriers)
chain: TLAQGLPKCNITCSKMTSKIPVALLIHYQQNQASCGKRAIILETRQHRLFCADPKEQWVKDAMQHLDRQAAALTRNG
notes: Selected phage clone (antagonist selection); not tested singly
Question: Does B8 bind (human CX3CR1 receptor [5])?
Answer: binds

B9: phage-displayed CX3CL1 mutant with N-terminal sequence WLSQGLA (other, not shown: large carriers)
chain: WLSQGLAKCNITCSKMTSKIPVALLIHYQQNQASCGKRAIILETRQHRLFCADPKEQWVKDAMQHLDRQAAALTRNG
notes: as for B8
Question: Does B9 bind (human CX3CR1 receptor [5])?
Answer: binds

B10: phage-displayed CX3CL1 mutant with N-terminal sequence SLIPVVP (other, not shown: large carriers)
chain: SLIPVVPKCNITCSKMTSKIPVALLIHYQQNQASCGKRAIILETRQHRLFCADPKEQWVKDAMQHLDRQAAALTRNG
notes: as for B8
Question: Does B10 bind (human CX3CR1 receptor [5])?
Answer: binds

B11: phage-displayed CX3CL1 mutant with N-terminal sequence SLDHGLS (other, not shown: large carriers)
chain: SLDHGLSKCNITCSKMTSKIPVALLIHYQQNQASCGKRAIILETRQHRLFCADPKEQWVKDAMQHLDRQAAALTRNG
notes: as for B8
Question: Does B11 bind (human CX3CR1 receptor [5])?
Answer: binds

B12: phage-displayed CX3CL1 mutant with N-terminal sequence TLPQGLA (other, not shown: large carriers)
chain: TLPQGLAKCNITCSKMTSKIPVALLIHYQQNQASCGKRAIILETRQHRLFCADPKEQWVKDAMQHLDRQAAALTRNG
notes: as for B8
Question: Does B12 bind (human CX3CR1 receptor [5])?
Answer: binds

B13: phage-displayed CX3CL1 mutant with N-terminal sequence QRDSVLA (other, not shown: large carriers)
chain: QRDSVLAKCNITCSKMTSKIPVALLIHYQQNQASCGKRAIILETRQHRLFCADPKEQWVKDAMQHLDRQAAALTRNG
notes: as for B8
Question: Does B13 bind (human CX3CR1 receptor [5])?
Answer: binds

B14: phage-F1 (phage clone ILDNGVS) (other, not shown: large carriers)
chain: ILDNGVSKCNITCSKMTSKIPVALLIHYQQNQASCGKRAIILETRQHRLFCADPKEQWVKDAMQHLDRQAAALTRNG
Question: Does B14 bind (CCR5 (on HEK-CCR5 cells))?
Answer: no binding
